Here are results for eight molecules from paper PMC3675580, “Stabilization, Characterization, and Selective Removal of Cystatin C Amyloid Oligomers*” (The Journal of Biological Chemistry, 2013).

What is called stoichiometry N is the number of molecules, sites or subunits per partner or assembly.

For data set [1], the target named is stab1 cystatin C (L47C/G69C), disulfide-stabilized monomer (human) (UniProt P01034). Description: MALDI-TOF MS; isolated oligomers 1 mg/ml in 150 mM ammonium bicarbonate pH 7.8 (nonreducing), matrix 2,6-dihydroxyacetophenone.
The target is the same in data set [2]. Description: native gel or EMSA; agarose gel electrophoresis under native conditions; stab1 cystatin C 0.2 mg/ml (15 uM) in PBS pH 7.4, 0.5 or 1.0 M GdnHCl, 1:1 molar equivalents of DTT, 24 h at 40 C.
The target in data set [3] is Mammalian legumain (EC 3.4.22.34) (pig).
Data set [4] concerns the molecule itself. Kind of data set: SEC; SEC at the end of the purification of refolded L68Q cystatin C. On the technique in general: SEC sorts molecules by how far they enter the pores of the column.
Data set [5] deals with the molecule itself. Description: SDS-PAGE in 0.1% SDS of unboiled, nonreduced samples; 1 mg/ml in 50 mM sodium acetate pH 4.0, 100 mM NaCl, 48 C, 900 rpm, 4 h; gel run at 4 C, silver-stained.

Numbering of substitutions follows the chain as printed. In names and notes the source's numbering stands. Several values for one entry are separate records, joined by “and”; a condition that tells them apart may be missing. Equal entries are not always repeated.

On to “stab1 cystatin C (L47C/G69C), disulfide-stabilized monomer (from UniProt P01034 27-146)”, for which, in data set [1], the stoichiometry N (monomeric subunits) amounted to 2.

For the molecule “stab1 cystatin C (L47C/G69C), disulfide-stabilized monomer (from UniProt P01034 27-146) (natural protein)”, the stoichiometry N in data set [2] stood at 2. The stoichiometry N (monomeric subunits) in data set [1] was 4 and 3.

With “stabilized cystatin C decamer (stab1, L47C/G69C) (from UniProt P01034 27-146) (complex)”, the inhibitory capacity toward legumain (fluorogenic substrate Z-Ala-Ala-Asn-AMC), equal mass concentrations in data set [3] was found to be 93%. Consider “stabilized cystatin C dimer (stab1, L47C/G69C) (from UniProt P01034 27-146) (complex)”, for which the inhibitory capacity toward legumain (fluorogenic substrate Z-Ala-Ala-Asn-AMC), equal mass concentrations in data set [3] worked out at 102%.

With “stabilized cystatin C trimer (stab1, L47C/G69C) (from UniProt P01034 27-146) (complex)”, the inhibitory capacity toward legumain (fluorogenic substrate Z-Ala-Ala-Asn-AMC), equal mass concentrations in data set [3] amounted to 99%.

B1: stabilized cystatin C high molecular weight oligomers (stab1, L47C/G69C) (complex)
chain: SSPGKPPRLVGGPMDASVEEEGVRRALDFAVGEYNKASNDMYHSRACQVVRARKQIVAGVNYFLDVELCRTTCTKTQPNLDNCPFHDQPHLKRKAFCSFQIYAVPWQGTMTLSKSTCQDA
modifications: intermolecular disulfide bridges (the paper: most likely Cys47-Cys69)
For the molecule B1, in data set [3], the inhibitory capacity toward legumain (fluorogenic substrate Z-Ala-Ala-Asn-AMC), equal mass concentrations was 55%.

B2: L68Q cystatin C (natural protein, human, UniProt P01034 27-146, looked up)
chain: B1 chain with C47L, L68Q, C69G
notes: cystatin C, human, hereditary cystatin C amyloid angiopathy variant L68Q; also called L68Q cystatin C variant; disease-associated L68Q variant
In the case of B2, the “stoichiometry N” value in data set [4] was determined as 2.

B3: human wild type cystatin C (natural protein, UniProt P01034 27-146, looked up)
chain: B1 chain with C47L, C69G
notes: cystatin C, human, wild type; Mr 13,343; also called wt cystatin C; wt monomer; source: E. coli periplasmic extract, purified (ion-exchange, SEC), lyophilized
On to B3, for which the binding result in data set [5] was “binds”.
